Source: patent US20230338553A1 (TECHNISCHE UNIVERSIT T DRESDEN, published 2023)

T1: Prostate Stem Cell Antigen (PSCA) (human, UniProt O43653 12-83)
T1 construct: whole, on cells
T1 sequence (looked up): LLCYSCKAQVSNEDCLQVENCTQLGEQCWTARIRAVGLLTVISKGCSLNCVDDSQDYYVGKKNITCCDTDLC

B1: scFv(MR1.1)-P-BAP (scFv)
scFv: DAAQPARRARRTKLGTELGSHMQVKLQQSGGGLVKPGASLKLSCVTSGFTFRKFGMSWVRQTSDKRLEWVASISTGGYNTYYSDNVKGRFTISRENAKNTLYLQMSSLKSEDTALYYCTRGYSPYSYAMDYWGQGTTVTVSSSGGGSGGGGSGGGGSDIELTQSPASLSVATGEKATIRCMTSTDIDDDMNWYQQKPGEPPKFLISEGNTLRPGVPSRFSSSGTGTDFVFTIENTLSEDVGDYYCLQSWNVPLTFGDGTKLEITKLSSKLKVTVNGTAYDVDVDVDKSHENPMGTILFGGGTGGAPAPAAGGAGAGKAGEGEIPAPLAGTVSKILVKEGDTVKAGQTVLVLEAMKMETEINAPTDGKVEKVLVKERDAVQGGQGLIKIGDLELIEGSSGPEQKLISEEDLNSAVDHHHHHH
modifications: mono-biotinylated at the C-terminal P-BAP (PSTCD biotin acceptor domain)
notes: EGFRvIII-specific scFv fused to P-BAP
B2: scFv(AM1)-P-BAP (scFv)
scFv: DAAQPARRARRTKLGTELGSQVKLQESGGGLVQPGGSLKLSCVASGFTFSSYTMSWVRRTPEKRLEWVAYIHNGGGHTYYPDTIKGRFTISRDNAKNTLFLEMSSLKSEDTAMYYCTRRMYYGNSHWYFDVWGAGTSVTVSSAKTTPPSVYGGGGSGGGGSGGGGSTNSDIVMTQSPSSLSASLGDRVTINCRTSQDISNYLNWYQLTPDGTVKLLIYYTLKLNSGVPSRFSGSGSGTDYSLTINNLEKEDFATYFCQQSKTLPWTFGGGTKLEIKRADAAPTVSGPKLSSKLKVTVNGTAYDVDVDVDKSHENPMGTILFGGGTGGAPAPAAGGAGAGKAGEGEIPAPLAGTVSKILVKEGDTVKAGQTVLVLEAMKMETEINAPTDGKVEKVLVKERDAVQGGQGLIKIGDLELIEGSSGPEQKLISEEDLNSAVDHHHHHH
modifications: mono-biotinylated at the C-terminal P-BAP (PSTCD biotin acceptor domain) when produced in 293T-huBirA cells
notes: PSCA-specific murine scFv derived from 7F5, fused to P-BAP, with myc tag and His6; also called murine scFv(AM1)-BAP
B3: scFv(h-AM1)-BAP (scFv)
scFv: DAAQPARRARRTKLGTELGSEVQLLESGGGLVQPGGSLRLSCVASGFTFSSYTMSWVRQAPGKGLEWVSYIHNGGGHTYYADSVKGRFTISRDNSKNTLYLQMNSLRAEDTAVYYCTRRMYYGNSHWYFDVWGAGTRVTITSAKTTPPSVYGGGGSGGGGSGGGGSTNSDIQMTQSPSSLSASVGDRVTITCRTSQSISNYLNWYQQKPGKAPKLLIYYTLKLNSGVPSRFSGSGSGTDFTLTISSLQPEDFATYYCQQSKTLPWTFGGGTKLEIKRADAAPTVSGPEQKLISEEDLNSAVDMSGLNDIFEAQKIEWHEGAPSSHHHHHH
modifications: mono-biotinylated at the C-terminal BAP (Bio-Tag)
notes: Fully humanized PSCA-specific scFv with N-terminal Ig kappa leader in the construct and C-terminal c-Myc tag, Bio-Tag and His6; also called humanized scFv(h-AM1)

How the values were obtained:
[1] = molecular target: T2, Epidermal Growth Factor Receptor variant III (EGFRvIII) (UniProt P00533 25-1210); experiment: flow cytometry on 293T^EGFRvIII cells, anti-myc and anti-biotin detection
T2 construct: whole, on cells
Description: The bound antibodies were detected either via their myc-epitope using anti-myc/FITC antibody or via their biotin residue using anti-biotin/PE antibody (1:10; Miltenyi Biotec, Bergisch Gladbach, Germany). Cells stained only with secondary antibody were included as a control. […] At least 10,000 stained cells were measured by flow cytometry (MACSQuant, Miltenyi Biotec, Bergisch Gladbach, Germany) and analyzed by FlowJo software version 7.6.5 (TreeStar Inc., Ashland, USA).
In this case the AM1-antibodies served as negative controls. Binding of scFvs and of scFv-P-BAPs was visualized with secondary anti-myc-PE (grey histograms in upper and middle graphs). […] Open histograms represent control staining only using secondary antibodies or an IgG-PE isotype control. […] Recombinant proteins were separated using SDS-PAGE, with parental single chain antibodies serving as controls. Blots were subsequently stripped and re-probed with biotin antibodies.

[2] = molecular target: T1, Prostate Stem Cell Antigen (PSCA); experiment: flow cytometry titration on 293T^PSCA cells, anti-myc-PE detection (Example 7, FIG. 9)
Description: After detection with a secondary anti-myc-PE-antibody the MFIs were determined using a MACSQuant Cytometer (Miltenyi Biotech) and FlowJo software and the Kd values were calculated with the PRISM software program. FIG. 9 depicts the graphs for the KD value calculations.

| Binder | binding result [1] | fold better affinity (KD value) than the parental murine scFv(AM1) [2] [fold] |
| --- | --- | --- |
| B1 | binds |  |
| B2 | no binding (tested: 1 µg scFv on 2×10^5 cells) |  |
| B3 |  | 100 |
